We go through 3 molecules from PMC6086869, “Accelerated pharmaceutical protein development with integrated cell free expression, purification, and bioconjugation” (Scientific Reports, 2018).

For data set [1], the target named is Peptide 3 (NpuDnaEC16 capture peptide with ANP photocleavable residue). The experiment in a line: pull-down; peptide 3 immobilised by its His6 on HisPur Ni-NTA magnetic beads; hCNTF-NpuDnaE(ΔC16) in BYL or HeLa CFPS matrix, overnight, room temperature; captured share from Western blots of the matrix before and after capture; the capture is followed by protein trans splicing, which ligates hCNTF covalently to the peptide's C-terminal stretch. For orientation: In western blotting, separated proteins are transferred to a membrane and probed.

Data set [2] deals with the molecule itself. The experiment in a line: SDS-PAGE without β-mercaptoethanol in the loading buffer, Western blot; purified hCNTF standard; anti-hCNTF polyclonal antibody for detection.

As for “hCNTF-NpuDnaE(ΔC16) synthesised in the tobacco BY-2 lysate (BYL) cell free system (from UniProt P26441 1-200)”, in data set [1], the amount of hCNTF bound to the beads was found to be 0.42 μg/mg beads.

On to “hCNTF-NpuDnaE(ΔC16) synthesised in the HeLa cell free system (from UniProt P26441 1-200)”, for which, in data set [1], the amount of hCNTF bound to the beads was 1.14 μg/mg beads.

B1: His6-hCNTF (purified human ciliary neurotrophic factor used as standard) (natural protein, UniProt P26441 1-200, looked up)
chain: MAFTEHSPLTPHRRDLCSRSIWLARKIRSDLTALTESYVKHQGLNKNINLDSADGMPVASTDQWSELTEAERLQENLQAYRTFHVLLARLLEDQQVHFTPTEGDFHQAIHTLLLQVAAFAYQIEELMILLEYKIPRNEADGMPINVGDGGLFEKKLWGLKVLQELSQWTVRSIHDLRFISSHQTGIPARGSHYIANNKKM
notes: human ciliary neurotrophic factor, codon optimised gene, plasmid pOPINF-CNTF (Itkonen et al. 2014); also called purified hCNTF; purified His6-hCNTF; source: E. coli Rosetta 2 (DE3) pLysS, purified (Ni-IDA resin, size exclusion chromatography)
As to B1, in data set [2], the binding result is “binds”.
